B1: 3'-5' exoribonuclease 1, residues 65 to 114; numbered along this chain, Q8IV48 (parent)
chain: VYKEIAITNGCINRMSKEELRAKLSEFKLETRGVKDVLKKRLKNYYKKQK
B2: Ankyrin-3, residues 4094 to 4171; numbered along this chain, Q12955 (parent)
chain: MAIVADHLGLSWTELARELNFSVDEINQIRVENPNSLISQSFMLLKKWVTRDGKNATTDALTSVLTKINRIDIVTLLE

Variants of: B1
Assay: abundance fitness (aPCA) (normalised: wild type 0, dead -1); higher = more abundant; growth selection in yeast, the domain comes from the species named
Settings: Homo sapiens

Abundance fitness: each site, then its substitutions
V1: G 0.002; K -0.043; L -0.047; I -0.025; F -0.104; M -0.065; D -0.078; C -0.072

Variants of: B2
Assay: as above
Settings: Homo sapiens

Abundance fitness: each site, then its substitutions
L61: T -1.05; I -0.355; G -0.954; S -0.665; M -0.223; R -0.412; A -0.732; F -0.823; P -0.921
R70: M -0.774; P -0.74; Q -0.908; D -0.753; V -0.876; K -0.393; A -0.918; C -0.817; W -0.795; L -0.82; G -1
I68: G -0.916; A -0.868; Q -0.806; R -0.965; M -0.244; L -0.219; T -0.987; E -0.964; V -0.284; C -0.402; W -0.878; F -0.963; S -0.935; K -0.606; P -0.37
T57: W -0.931; V -0.124; Y -0.14; S -0.117; R -0.548
K67: R -0.091; L -0.641; P -0.646; V -0.276; C -0.436; N -0.48; A -0.135; W -0.667; H -0.247; T -0.228; S -0.285; Q -0.056; G -0.525
V74: T -0.142; K -0.255; D -0.944; L -0.399; E -0.888; Y -0.55; M -0.749; P -0.86; S -0.656; G -0.651; R -0.827; F -1.08; N -0.777
V64: H 0.132; P 0.037; Q 0.064; R -0.298; W -0.644; L 0.111; M 0.064; T -0.087; E 0.001; Y -0.166; C 0.05; S -0.06; N -0.236; K -0.333; G -0.05; A -0.081; D -0.858; F 0.111
I71: Y 0.082; A -0.075; P -0.046; G 0.085; C -0.167; N -0.155; V 0.015; E -0.066; H -0.198; M 0.039; T -0.016; L 0.081; K 0.057; S -0.048; W -0.029; Q 0.136; F 0.066; D 0.307; R -0.036
D72: A -0.739; R -0.784; P -0.396; E -0.567; V -0.644; Q -0.702; G -0.878; C -0.958; W -0.894; S -0.855; M -0.738; L -0.718
A60: P -0.993; F -0.086; Y -0.417; I -0.28; S -0.134; T -0.283; C -0.09; V -0.019; Q -0.021; K -0.083; N 0.219; W -0.458; E 0.061; D -0.627; L -0.074; R -0.081; G -0.233
T58: A -0.051; Q 0.034; D 0.086; H 0.001; P -0.195; N -0.168; L -0.002; R -0.067; K 0.016; G -0.104; I 0.09; W -0.123; E -0.113; V 0.05; M 0.173; S 0.106; F -0.112
N69: A -0.339; E -0.032; C -0.549; R -0.224; K -0.104; D -0.178; S -0.29; P -0.811; M -0.61; V -0.928; H -0.308; Y -0.699; Q -0.061; L -0.679; W -1.01; G 0.073
E78: C -0.275; H -0.026; Y -0.159; K -0.025; I -0.219; T -0.063; M -0.211; N -0.014; V -0.206; G 0.077; Q -0.397; L -0.326; D -0.001; F -0.13; S -0.089; W -0.649
T62: G -0.201; A 0.039; F -0.175; N -0.44; Y -0.12; K 0.097; W -0.434; H -0.297; V -0.057; L -0.045; P -0.102; M 0.06; Q -0.201; R 0.068; C -0.292; I -0.386; E -0.297
L77: H -0.742; M -0.022; G -0.68; S -0.526; Q -0.805; P -0.768; R -0.93; V -0.139; C -0.164; K -0.602; T -0.434; I -0.293; W -0.518
S63: N -0.106; D 0.054; T 0.023; M -0.046; C -0.11; A -0.014; V -0.061; G -0.031; I -0.287; E -0.075; K 0.002; W -0.405; H -0.051; F -0.153; P -0.137; Y -0.003; R -0.004; Q -0.012
D59: C -0.036; L -0.133; S -0.118; Y -0.253; V -0.117; F -0.565; A -0.032; P -0.058; G -0.011; E -0.103; Q 0.052; W -0.201; H -0.058; K 0.052; M 0.022; R -0.072; N -0.228
L76: I 0.434; M 0.067; R 0.045; Q 0.028; P -0.438; T -0.197; F -0.231; D -0.351; W -0.489; A 0.08; E -0.185; V 0.026; H -0.064; G -0.457; C -0.045; Y -0.546; S -0.175; N -0.292
I73: Y -0.938; A -0.631; L -0.148; G -0.977; H -0.715; P -0.858; V -0.276; N -0.597; S -0.849; E -0.989; M -0.503; C -0.695; W -0.793
T75: F -0.236; Q 0.026; V -0.112; D -0.155; I -0.182; W -0.189; E 0.079; S -0.004; R -0.002; C -0.081; M -0.026; N 0.06; H -0.219; L 0.006
T66: F -0.052; K -0.1; N -0.112; H -0.013; Q 0.118; R -0.07; A -0.14; P -0.535; V 0.018; S -0.173; L -0.102; E -0.182; I -0.088; M -0.054; G -0.126; W -0.173; C -0.21
L65: F -0.752; K -0.528; P -0.701; C -0.505; Y -0.737; E -0.824; S -0.884; N -0.426; H -0.973; D 0.076; G -0.825; Q -1.05; M -0.651; I -0.847; W -0.901; R -0.902; V -0.779; A -1.14
